In the supplement of paper PMC10724198:
± gives the standard deviation of the averaged measurements.
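Further: PSI is a weighted mean of sequencing reads over stability bins, variants kept only with over 10 reads, mCherry proximal and sfGFP distal, peptide attached via GGGS linker.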

What follows are sequences tested on Saccharomyces cerevisiae (assay: protein stability index of tFT-peptide fusion (C-terminal peptide) (PSI (0-1 scale)); higher = more stable (slower turnover)). Details: genetic background: wild type; temperature: 30 C.
Procedure: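 Multiplexed protein stability (MPS) profiling in S. cerevisiae. Random 12-aa peptides (tFT-X12 library) are fused to the C-terminus of a sfGFP-mCherry tandem fluorescent timer, after mCherry and a GGGS linker. Cells are FACS-sorted into 8 mCherry/sfGFP bins and deep-sequenced. The protein stability index (PSI) is the read-weighted bin average, scaled from 0 (unstable) to 1 (stable). Only peptides with >10 reads are reported; cells were grown at 30 °C in SC-His with glucose.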
PLDTPYMAYNSD was tested, and the protein stability index was 0.71 ± 0.033. PIPPPPPPPHSP showed a protein stability index of 0.779 ± 0.043. Work on CGVYPQLSGGFG yielded a protein stability index of 0.687 ± 0.018. In the case of KSFQLEHKYTRN, the protein stability index is reported as 0.737 ± 0.029. In the case of RADLHGFPHRCP, the protein stability index is reported as 0.76 ± 0.024. In the case of GSVGSFIVVVHF, the protein stability index is reported as 0.552 ± 0.013. In the case of SLASHVLSRPTL, the protein stability index is reported as 0.7 ± 0.047. GRQLSTSRLRSS was tested, and the protein stability index was 0.674 ± 0.025. Sequence VFCVFACLCIVF has a protein stability index of 0.522 ± 0.091. TSCIVVRGGRNG was tested, and the protein stability index was 0.6453 ± 0.0041. With PPPPPRPPPARL the protein stability index was 0.672 ± 0.06. Work on FLYPPAHPLLPP yielded a protein stability index of 0.7 ± 0.024. Sequence YPVLFLRSAPCK has a protein stability index of 0.584 ± 0.031. Work on RKCPRVCVFQSS yielded a protein stability index of 0.557 ± 0.017. PPAPPPPPIRPP gave a protein stability index of 0.696 ± 0.033. With SPPPLPPPTLPT the protein stability index was 0.791 ± 0.084. NGLACGSLTLLK gave a protein stability index of 0.6738 ± 0.0019. CCLSISSSLLDL was tested, and the protein stability index was 0.675 ± 0.13. For SCWHRNRKIILD, the protein stability index was 0.573 ± 0.056. Sequence RETSRNCGKVST has a protein stability index of 0.745 ± 0.043. In the case of GRWGVMKGEEDV, the protein stability index is reported as 0.737 ± 0.032. VRVRPAVRSGPE showed a protein stability index of 0.616 ± 0.006. Work on SGSIRHSSPLPT yielded a protein stability index of 0.75 ± 0.12. Work on VPRPPPHPPGDV yielded a protein stability index of 0.622 ± 0.016. For PPLYPGSKVQLL, the protein stability index was 0.672 ± 0.011. RRSLSPPRPRYM gave a protein stability index of 0.7 ± 0.018. PPPPPACRLCFF was tested, and the protein stability index was 0.634 ± 0.1. QHFAKAIVQTTT showed a protein stability index of 0.679 ± 0.02. In the case of PEDRCLDLLILC, the protein stability index is reported as 0.5236 ± 0.004. In the case of RRTEHPRTRAAR, the protein stability index is reported as 0.692 ± 0.045. In the case of VVYFARGDNVYA, the protein stability index is reported as 0.682 ± 0.05. Sequence CKMGNQNIRLYV has a protein stability index of 0.599 ± 0.033. Sequence PTLAFIPIPTLF has a protein stability index of 0.6051 ± 0.004. In the case of SFSFPPHPLKSL, the protein stability index is reported as 0.723 ± 0.1. VLSLCLSVRSFV showed a protein stability index of 0.562 ± 0.017. PLHPLTLPHLPT showed a protein stability index of 0.665 ± 0.092. Work on KEQKIMSKKIEK yielded a protein stability index of 0.68978 ± 0.00026. With VEGSRDSLGCMD the protein stability index was 0.679 ± 0.03. WPFMGLSAGCLR was tested, and the protein stability index was 0.691 ± 0.028. With KGRRVSTGRRRR the protein stability index was 0.712 ± 0.004. QAIEAGPPEHGY was tested, and the protein stability index was 0.677 ± 0.036. PPRFFARPPFRT was tested, and the protein stability index was 0.6309 ± 0.0059. In the case of PLRSFSLRPFPL, the protein stability index is reported as 0.775 ± 0.06. For NPPALPPFSPSP, the protein stability index was 0.708 ± 0.01. In the case of VVSGSHSVLYGS, the protein stability index is reported as 0.71 ± 0.028. With GWGWGSMDLRDR the protein stability index was 0.6919 ± 0.0024. VYKLDLEEENRS showed a protein stability index of 0.654 ± 0.072. In the case of TCLDVFACYASF, the protein stability index is reported as 0.666 ± 0.017. GGGLREARVLRG was tested, and the protein stability index was 0.711 ± 0.015. Sequence FPPAHPPPCLPP has a protein stability index of 0.6473 ± 0.003. In the case of SLSPLLVILANL, the protein stability index is reported as 0.613 ± 0.05. Sequence SLSTSFSSRPPS has a protein stability index of 0.704 ± 0.089. Sequence EYLHPARITGVL has a protein stability index of 0.733 ± 0.11. PPLLLSPCPSLP gave a protein stability index of 0.7229 ± 0.0034. In the case of VVAVGHWFDGGV, the protein stability index is reported as 0.623 ± 0.045. With KREMESTTHSKT the protein stability index was 0.5985 ± 0.0011. Sequence VLGLGSGGVCGG has a protein stability index of 0.693 ± 0.023. Work on PPPPLPPFPPHP yielded a protein stability index of 0.659 ± 0.017. Sequence ATPGALVSHPTL has a protein stability index of 0.729 ± 0.049. In the case of RRATCYGLGPTM, the protein stability index is reported as 0.681 ± 0.013. ATPAPRGEVLVP was tested, and the protein stability index was 0.6369 ± 0.0034. Work on SPRWAPPLPAWP yielded a protein stability index of 0.712 ± 0.014. PPPPPPPPVPLL showed a protein stability index of 0.708 ± 0.017. Work on GRFGGLLRKVLG yielded a protein stability index of 0.678 ± 0.15. CCRDLWVWLVKW gave a protein stability index of 0.619 ± 0.071. FGCDCFCPFCLR gave a protein stability index of 0.706 ± 0.019. LGAPPPLGLSPS gave a protein stability index of 0.733 ± 0.019. In the case of TPWQTREVTRAR, the protein stability index is reported as 0.691 ± 0.057. GNLTPHSERLPP showed a protein stability index of 0.658 ± 0.0084. For RLGLVITKLGVY, the protein stability index was 0.541 ± 0.0081. GLGQHPSLMSPP showed a protein stability index of 0.706 ± 0.028. Sequence HPPPPAPTPSSR has a protein stability index of 0.711 ± 0.04. With TSASLFPLGPFR the protein stability index was 0.666 ± 0.02. PPPFPLLSPPPL gave a protein stability index of 0.808 ± 0.0097. Work on GRYGPTIPRGEP yielded a protein stability index of 0.696 ± 0.017. Sequence PSRYHPLPPPTP has a protein stability index of 0.711 ± 0.084. WRLGEREGWKAG showed a protein stability index of 0.615 ± 0.0077. With GSGRVVGSWSVL the protein stability index was 0.661 ± 0.045. Sequence KNANLRLPWKAH has a protein stability index of 0.667 ± 0.029. LRQWRRERAIII was tested, and the protein stability index was 0.601 ± 0.042. Work on QTMYFLRKEKEN yielded a protein stability index of 0.696 ± 0.063. For SDKVLSSTEIQN, the protein stability index was 0.719 ± 0.039. RPDACTRFGLRV was tested, and the protein stability index was 0.678 ± 0.013. VGGIGGWFCRGR gave a protein stability index of 0.73 ± 0.13. In the case of SSSSSSALSGFE, the protein stability index is reported as 0.704 ± 0.051. With KVSTWKISRISG the protein stability index was 0.55 ± 0.026. Work on GLGAWRGAGRVG yielded a protein stability index of 0.649 ± 0.053. Sequence PASPHPPSPSPL has a protein stability index of 0.604 ± 0.022. FASLVVSYGAGY showed a protein stability index of 0.6712 ± 0.0019. QWPCPTLSLRFS gave a protein stability index of 0.632 ± 0.015. Work on SAWVGVGHGRVS yielded a protein stability index of 0.6113 ± 0.0056. With SPCSSDPLYSFA the protein stability index was 0.762 ± 0.069. With PPAPPPAPPHSS the protein stability index was 0.633 ± 0.061. AGGGVKLWWGRE gave a protein stability index of 0.657 ± 0.054. GIIQKAQTSIKI gave a protein stability index of 0.592 ± 0.0067. Sequence FSHPCPLSGLYP has a protein stability index of 0.716 ± 0.015. In the case of PPARHSPIFPVH, the protein stability index is reported as 0.786 ± 0.022. Sequence RGRRGAGRKGGP has a protein stability index of 0.751 ± 0.15.
